Reference: paper PMC7382501

Target: FasRLVL triple mutant (Leu106, Val163 and Leu185 to phenylalanine) (Mycobacterium tuberculosis) (UniProt O05858)
Experiment: SEC

Substance: FasRLVL triple mutant (Leu106, Val163 and Leu185 to phenylalanine) (from UniProt O05858 1-228) (natural protein)
- percent eluting as a monomer: < 50%
- percent eluting as the wild-type protein (dimer): > 50%
- stoichiometry N: 2
